Positions count from the first letter of the chain named. Blank lines part the entries; values can stand above or below the binder they belong to.
Experiments:
human PSMA [1] = target: T1, human PSMA (human, UniProt Q04609 44-750, limits assumed); assay: Octet, uTCE
T1 construct: other Octet runs used human PSMA-Fc; also called huPSMA; prostate-specific membrane antigen

cynomolgus monkey PSMA [2] = target: T2, cynomolgus monkey PSMA (cynomolgus monkey, UniProt A0A2K5VNZ0 44-750); assay: Octet, uTCE
T2 construct: also called cyPSMA; cyno PSMA

cynomolgus CD3 epsilon [3] = target: T3, cynomolgus CD3 epsilon (cynomolgus monkey, UniProt Q95LI5 22-117, limits assumed); assay: Octet, uTCE
T3 construct: also called cyCD3e
T3 sequence (looked up): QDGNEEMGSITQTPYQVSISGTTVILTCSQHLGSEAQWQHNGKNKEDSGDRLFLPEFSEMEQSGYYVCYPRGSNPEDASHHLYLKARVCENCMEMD

human CD3 epsilon [4] = target: T4, human CD3 epsilon (human, UniProt P07766 23-126, limits assumed); assay: Octet, uTCE
T4 construct: also called huCD3e
T4 sequence (P07766 23-126 limits assumed): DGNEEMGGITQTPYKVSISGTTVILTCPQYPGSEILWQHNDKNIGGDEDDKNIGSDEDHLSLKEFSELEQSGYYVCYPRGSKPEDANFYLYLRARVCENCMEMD

cynomolgus CD3 epsilon [5] = target: T3, cynomolgus CD3 epsilon; assay: Biacore, uTCE
human CD3 epsilon [6] = target: T4, human CD3 epsilon; assay: Biacore, uTCE
human PSMA [7] = target: T1, human PSMA; assay: Biacore, uTCE
cynomolgus monkey PSMA [8] = target: T2, cynomolgus monkey PSMA; assay: Biacore, uTCE
human CD3 epsilon [9] = target: T4, human CD3 epsilon; assay: Octet, crude lysate
Description: Pool 2 consisted of paTCE molecules each containing PSMA.262 and one of 64 CD3.23 mutation combination variants. Stability and affinity of the individually expressed molecules in the form of crude lysate was evaluated by Octet. […] The binding of these anti-CD3 molecules (CD3.227, CD3.228, CD3.229 and CD3.230) to human and cynomolgus CD3 was measured by Octet and the Tₘ was measured by Differential Scanning Fluorimetry. All variants were paired with PSMA.262 except for CD3.23 which was paired with PSMA.5.

T1 sequence (Q04609 44-750 limits assumed): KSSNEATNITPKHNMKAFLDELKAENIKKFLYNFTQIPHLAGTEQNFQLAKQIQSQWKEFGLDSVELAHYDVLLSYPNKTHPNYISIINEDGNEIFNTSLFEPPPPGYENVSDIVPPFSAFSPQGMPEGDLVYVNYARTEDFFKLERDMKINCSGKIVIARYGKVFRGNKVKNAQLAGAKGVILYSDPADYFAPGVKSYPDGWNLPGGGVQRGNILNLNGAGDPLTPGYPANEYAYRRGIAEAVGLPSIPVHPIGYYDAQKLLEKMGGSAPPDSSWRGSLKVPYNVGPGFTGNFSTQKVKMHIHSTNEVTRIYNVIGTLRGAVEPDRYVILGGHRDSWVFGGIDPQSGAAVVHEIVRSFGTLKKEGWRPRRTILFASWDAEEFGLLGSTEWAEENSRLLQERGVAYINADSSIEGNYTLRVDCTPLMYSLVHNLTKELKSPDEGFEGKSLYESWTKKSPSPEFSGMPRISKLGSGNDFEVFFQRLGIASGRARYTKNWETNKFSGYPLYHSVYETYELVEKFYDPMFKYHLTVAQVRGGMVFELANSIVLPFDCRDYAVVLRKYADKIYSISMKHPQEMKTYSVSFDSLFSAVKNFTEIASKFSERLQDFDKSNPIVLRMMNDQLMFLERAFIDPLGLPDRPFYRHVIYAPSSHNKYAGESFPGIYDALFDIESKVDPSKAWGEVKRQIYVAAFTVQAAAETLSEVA

B3: uTCE from AC3934 (PSMA.262-CD3.228) (bispecific antibody)
chain: GTSESATPESQVQLVESGGGVVQPGRSLRLSCAASGRTFGIYVWGWVRQAPGKEREFVGAISWSGSNRKVSDSVKGRFTISRDNSKNTLYLQMNSLRAEDTAVYYCAASNKLYGRTWYDFNESDYWGQGTQVTVSSGGGGSGGGSELVVTQEPSLTVSPGGTVTLTCRSSNGAVTSSNYANWVQQKPGQAPRGLIGGTNKRAPGTPARFSGSLLGGKAALTLSGVQPEDEAVYYCALWYPNLWVFGGGTKLTVLSESATPESGPGTSPGATPESGPGTSESATPEVQLVESGGGIVQPGGSLRLSCAASGFTFSTYAMNWVRQAPGKGLEWVGRIRTKRNNYATYYADSVKGRFTISRDDSKNTVYLQMNSLKTEDTAVYYCVRHENFGNSYVSWFAHWGQGTLVTVSSGTATPESGPG
notes: release-segment residues left at the ends not specified; also called AMX500-P7 uTCE
Kd (human PSMA [1]): 1.6 nM
Kd (cynomolgus monkey PSMA [2]): 13.1 nM
Kd (cynomolgus CD3 epsilon [5]): 10.4 nM
Kd (human CD3 epsilon [6]): 9.83 nM
Kd (cynomolgus CD3 epsilon [3]): 33.7 nM
Kd (human CD3 epsilon [4]): 26.6 nM
Kd (human PSMA [7]): 0.5 nM
Kd (cynomolgus monkey PSMA [8]): 13 nM

B4: CD3.218 (AC3649) (bispecific antibody, V domains shown)
VH: EVQLVESGGGIVQPGGSLRLSCAASGFTFSTYAMNWVRQAPGKGLEWVGRIRSKYNNYATTYADSVKGRFTISRDDSKNTVYLQMNSLKTEDTAVYYCVRHENFGNSYVSWFAHWGQGTLVTVSS
VL: ELVVTQEPSLTVSPGGTVTLTCRSSNGAVTSSNYANWVQQKPGQAPRGLIGGTNKRAPGTPARFSGSLLGGKAALTLSGVQPEDEAVYYCALWYPNLWVFGGGTKLTVL
notes: paTCE with PSMA.262 VHH; crude lysate
Kd (human CD3 epsilon [9]): 4.4 nM

B5: CD3.251 (AC3682) (bispecific antibody, V domains shown)
VH: B4 VH with S30N, Y55R, G68D
VL: B4 VL
notes: as for B4
Kd (human CD3 epsilon [9]): 32.9 nM

Results, then the binder that gave them:

Kd (human PSMA [1]): 6.2 nM
Kd (cynomolgus monkey PSMA [2]): 47.5 nM
Kd (cynomolgus CD3 epsilon [3]): 40 nM
Kd (human CD3 epsilon [4]): 34.8 nM
B1: uTCE from AC3445 (PSMA.119-CD3.23) (bispecific antibody)
chain: GTSESATPESQVQLVESGGGVVQPGRSLRLSCAASGRTFGIYVMGWVRQAPGKEREFVAAISWSGSNRKVSDSVKGRFTISRDNSKNTLYLQMNSLRAEDTAVYYCAASNRLYGRTWYDFNESDYWGQGTQVTVSSGGGGSGGGSELVVTQEPSLTVSPGGTVTLTCRSSNGAVTSSNYANWVQQKPGQAPRGLIGGTNKRAPGTPARFSGSLLGGKAALTLSGVQPEDEAVYYCALWYPNLWVFGGGTKLTVLSESATPESGPGTSPGATPESGPGTSESATPEVQLLESGGGIVQPGGSLKLSCAASGFTFNTYAMNWVRQAPGKGLEWVARIRSKYNNYATYYADSVKDRFTISRDDSKNTVYLQMNNLKTEDTAVYYCVRHENFGNSYVSWFAHWGQGTLVTVSSGTATPESGPG
notes: release-segment residues left at the ends not specified

Kd (human PSMA [1]): 13.2 nM
Kd (cynomolgus monkey PSMA [2]): 198 nM
Kd (cynomolgus CD3 epsilon [5]): 26.6 nM
Kd (human CD3 epsilon [6]): 27.3 nM
Kd (cynomolgus CD3 epsilon [3]): 44.9 nM
Kd (human CD3 epsilon [4]): 43 nM
Kd (human PSMA [7]): 19 nM
Kd (cynomolgus monkey PSMA [8]): 354 nM
B2: uTCE from AC3928 (PSMA.350-CD3.23) (bispecific antibody)
chain: B1 chain with M44W, V47F, A59G, I61M, R111K, L112E
notes: release-segment residues left at the ends not specified; also called AMX500-P6 uTCE

Reference: US20250188184A1 (published 2025)
